Results on one protein are retold here after doi:10.1101/365775 (bioRxiv, 2018).

This data set deals with the molecule itself. Briefly: SEC. (In general: In gel filtration, larger molecules generally elute earlier.)

B1: Sec18_(His8) (natural protein, yeast, UniProt P18759 1-758, looked up)
chain: MFKIPGFGKAAANHTPPDMTNMDTRTRHLKVSNCPNNSYALANVAAVSPNDFPNNIYIIIDNLFVFTTRHSNDIPPGTIGFNGNQRTWGGWSLNQDVQAKAFDLFKYSGKQSYLGSIDIDISFRARGKAVSTVFDQDELAKQFVRCYESQIFSPTQYLIMEFQGHFFDLKIRNVQAIDLGDIEPTSAVATGIETKGILTKQTQINFFKGRDGLVNLKSSNSLRPRSNAVIRPDFKFEDLGVGGLDKEFTKIFRRAFASRIFPPSVIEKLGISHVKGLLLYGPPGTGKTLIARKIGTMLNAKEPKIVNGPEILSKYVGSSEENIRNLFKDAEAEYRAKGEESSLHIIIFDELDSVFKQRGSRGDGTGVGDNVVNQLLAKMDGVDQLNNILVIGMTNRKDLIDSALLRPGRFEVQVEIHLPDEKGRLQIFDIQTKKMRENNMMSDDVNLAELAALTKNFSGAEIEGLVKSASSFAINKTVNIGKGATKLNTKDIAKLKVTREDFLNALNDVTPAFGISEEDLKTCVEGGMMLYSERVNSILKNGARYVRQVRESDKSRLVSLLIHGPAGSGKTALAAEIALKSGFPFIRLISPNELSGMSESAKIAYIDNTFRDAYKSPLNILVIDSLETLVDWVPIGPRFSNNILQMLKVALKRKPPQDRRLLIMTTTSAYSVLQQMDILSCFDNEIAVPNMTNLDELNNVMIESNFLDDAGRVKVINELSRSCPNFNVGIKKTLTNIETARHDEDPVNELVELMTQSA
Regarding B1, the “stoichiometry N” value is 6.

The term stoichiometry N denotes the number of molecules, sites or subunits per partner or assembly.
